Reference: patent US20240287138A1 (Merck Sharp & Dohme, published 2024)
Bridge positions count the residues as written; N and C are the ends. Square brackets hold non-standard residues; d marks the D form. Primed or numbered codes have the meaning given here. Trp(βS-Me,7-OMe) = COc1cccc2c([C@H](C)[C@H](N)C(=O)O)c[nH]c12; Phe(2-F,4-COOH) = N[C@@H](Cc1ccc(C(=O)O)cc1F)C(=O)O; Trp(7-CN) = N#Cc1cccc2c(C[C@H](N)C(=O)O)c[nH]c12; Trp(7-Cl) = N[C@@H](Cc1c[nH]c2c(Cl)cccc12)C(=O)O; Phe(3-COOH) = N[C@@H](Cc1cccc(C(=O)O)c1)C(=O)O; Phe(4-CONH2) = NC(=O)c1ccc(C[C@H](N)C(=O)O)cc1; Phe(4-COOH) = N[C@@H](Cc1ccc(C(=O)O)cc1)C(=O)O; Trp(7-aza) = N[C@@H](Cc1c[nH]c2ncccc12)C(=O)O; Phe(4-CH2NH2) = NCc1ccc(C[C@H](N)C(=O)O)cc1; 3Pal = N[C@@H](Cc1cccnc1)C(=O)O; 4Pal = N[C@@H](Cc1ccncc1)C(=O)O; NMeE = CN[C@@H](CCC(=O)O)C(=O)O; dHyp = O=C(O)[C@H]1C[C@H](O)CN1; d(αMeP) = C[C@]1(C(=O)O)CCCN1; Phe4AcPip = not defined here; 40Me3Pal = not defined here; Pipt5OH = not defined here; αMeS = C[C@](N)(CO)C(=O)O; Nle = CCCC[C@H](N)C(=O)O; Pip2c = not defined here; cAcBu = not defined here; Ahp′ = not defined here; Pip′ = not defined here; MO2 = not defined here; Qdm = not defined here; Sar = CNCC(=O)O

T1: TNFR1 on THP-1 Lucia NF-kB reporter cells (UniProt P19438 30-455, limits assumed)
T1 sequence (looked up): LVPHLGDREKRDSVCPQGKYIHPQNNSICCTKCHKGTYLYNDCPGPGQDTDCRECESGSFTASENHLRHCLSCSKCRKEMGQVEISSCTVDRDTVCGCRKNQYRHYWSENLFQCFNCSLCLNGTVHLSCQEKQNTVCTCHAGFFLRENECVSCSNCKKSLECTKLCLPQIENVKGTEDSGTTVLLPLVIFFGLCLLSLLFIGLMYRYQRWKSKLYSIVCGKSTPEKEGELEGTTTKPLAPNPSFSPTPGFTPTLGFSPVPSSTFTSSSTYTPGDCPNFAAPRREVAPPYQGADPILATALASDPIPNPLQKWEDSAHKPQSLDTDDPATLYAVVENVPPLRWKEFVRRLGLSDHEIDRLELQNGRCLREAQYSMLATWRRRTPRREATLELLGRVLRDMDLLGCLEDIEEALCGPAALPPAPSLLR


Biological target: T1, TNFR1 on THP-1 Lucia NF-kB reporter …
Assay: cell-based or functional assay

Binder | THP-1 IC50 [nM]
cyclo([bhcLeu][Nle][4Pal][Pip2c]W[NMeE]N[4Pal][Trp(7-Cl)][αMeS][Phe(4-COOH)][Tyr3OMe][Sar][Trp(βS-Me,7-OMe)]) (reading uncertain; also: printed as cyclo(bhcLeu-Nle-4Pal-Pip2c-W-NMeE-N-4Pal-Trp7Cl-aMeS-Phe4COOH-Tyr3OMe-Sar-SbMeW7OMe)) [SEQ ID NO. 24] | 0.7
cyclo([bhcLeu][Nle][3Pal][Pip2c]W[NMeE]N[4Pal][Trp(7-Cl)][αMeS][Phe(4-COOH)]Y[Sar][Trp(βS-Me,7-OMe)]) (reading uncertain; also: printed as cyclo(bhcLeu-Nle-3Pal-Pip2c-W-NMeE-N-4Pal-Trp7Cl-aMeS-Phe4COOH-Y-Sar-SbMeW7OMe)) [SEQ ID NO. 40] | 1.5
{CH2CO}-[Nle][4Pal][Pip′][Trp(7-aza)][NMeE]N[Phe(4-CH2NH2)][Trp(7-Cl)][αMeS][Phe(4-CH2NH2)]Y[Sar][Trp(βS-Me,7-OMe)]C-NH2 (thioether N-14) [SEQ ID NO. 58] | 16.2
cyclo([bhcLeu][Nle][4Pal][Pipt5OH]W[dHyp][SbOHAsn][4Pal][Trp(7-CN)][αMeS][Phe(4-CONH2)][Phe(4-COOH)][Sar][Trp(βS-Me,7-OMe)]) (reading uncertain; also: printed as cyclo(bhcLeu-Nle-4Pal-Pipt5OH-W-dProt4OH-SbOHAsn-4Pal-Trp7CN-aMeS-Phe4CONH2-Phe4COOH-Sar-SbMeW7OMe)) [SEQ ID NO. 25] | 0.8
cyclo([bhcLeu][Nle][4Pal][Pip2c]W[NMeE]N[4Pal][Trp(7-Cl)][αMeS][Phe(4-COOH)][Phe4AcPip][Sar][Trp(βS-Me,7-OMe)]) (reading uncertain; also: printed as cyclo(bhcLeu-Nle-4Pal-Pip2c-W-NMeE-N-4Pal-Trp7Cl-aMeS-Phe4COOH-Phe4AcPip-Sar-SbMeW7OMe)) [SEQ ID NO. 63] | 1.2
cyclo([bhcLeu][Nle][4Pal][Pip2c]W[NMeE]N[4Pal][Trp(7-Cl)][αMeS][Phe(2-F,4-COOH)]Y[Sar][Trp(βS-Me,7-OMe)]) (reading uncertain; also: printed as cyclo(bhcLeu-Nle-4Pal-Pip2c-W-NMeE-N-4Pal-Trp7Cl-aMeS-Phe2F4COOH-Y-Sar-SbMeW7OMe)) [SEQ ID NO. 7] | 1.6
{CH2CO}-[Nle][4Pal][Pip2c][TrpCH2COOH][NMeE]N[Phe(4-COOH)][Trp(7-Cl)][αMeS][Phe(4-CONH2)]Y[Sar][Trp(βS-Me,7-OMe)]C-NH2 (thioether N-14; reading uncertain; also: printed as cyclo(ClAc-Nle-4Pal-Pip2c-TrpCH2COOH-NMeE-N-Phe4COOH-Trp7Cl-aMeS-Phe4CONH2-Y-Sar-SbMeW7OMe-C)-NH2) [SEQ ID NO. 52] | 3.9
cyclo([bhcLeu][Nle][4Pal][Pip2c]W[NMeE]N[4Pal][Trp(7-Cl)][αMeS][Phe(3-COOH)]Y[Sar][Trp(βS-Me,7-OMe)]) (reading uncertain; also: printed as cyclo(bhcLeu-Nle-4Pal-Pip2c-W-NMeE-N-4Pal-Trp7Cl-aMeS-Phe3COOH-Y-Sar-SbMeW7OMe)) [SEQ ID NO. 28] | 1.6
cyclo([bhcLeu][Ahp′][SbMe4Pal]DW[dHyp]N[Phe(4-COOH)][Trp(7-CN)][αMeS][Phe(4-CONH2)][Phe(4-CONH2)][Sar][Trp(βS-Me,7-OMe)]) (reading uncertain; also: printed as cyclo(bhcLeu-Ahp-SbMe4Pal-D-W-dProt4OH-N-Phe4COOH-Trp7CN-aMeS-Phe4CONH2-Phe4CONH2-Sar-SbMeW7OMe)) [SEQ ID NO. 55] | 1.3
cyclo([bhcLeu][LysMe3][4Pal][Pip′]W[NMeE]N[4Pal][Trp(7-Cl)][αMeS][Phe(4-COOH)]Y[Sar][Trp(βS-Me,7-OMe)]) [SEQ ID NO. 47] | 1.9

Next, values leading:

THP-1 IC50 [nM] | Binder
1.1 | cyclo([bhcLeu][Nle][4Pal][Pip2c]W[NMeE][MO2][4Pal][Trp(7-Cl)][αMeS][Phe(4-COOH)]Y[Sar][Trp(βS-Me,7-OMe)]) (reading uncertain; also: printed as cyclo(bhcLeu-Nle-4Pal-Pip2c-W-NMeE-MO2-4Pal-Trp7Cl-aMeS-Phe4COOH-Y-Sar-SbMeW7OMe)) [SEQ ID NO. 64]
1.6 | cyclo([cAcBu][Nle][4Pal][Pip2c]W[NMeE]N[4Pal][Trp(7-Cl)][αMeS][Phe(4-COOH)]Y[Sar][Trp(βS-Me,7-OMe)]) (reading uncertain; also: printed as cyclo(cAcBu-Nle-4Pal-Pip2c-W-NMeE-N-4Pal-Trp7Cl-aMeS-Phe4COOH-Y-Sar-SbMeW7OMe)) [SEQ ID NO. 69]
1.3 | cyclo([bhcLeu][Nle][4Pal][Pip2c]W[NMeE]N[40Me3Pal][Trp(7-Cl)][αMeS][Phe(4-COOH)]Y[Sar][Trp(βS-Me,7-OMe)]) (reading uncertain; also: printed as cyclo(bhcLeu-Nle-4Pal-Pip2c-W-NMeE-N-40Me3Pal-Trp7Cl-aMeS-Phe4COOH-Y-Sar-SbMeW7OMe)) [SEQ ID NO. 100]
0.7 | cyclo([bhcLeu][Nle][4Pal][Pipt5OH]W[dHyp][RbOHAsn][4Pal][Trp(7-CN)][αMeS][Phe(4-CONH2)][Phe(4-COOH)][Sar][Trp(βS-Me,7-OMe)]) (reading uncertain; also: printed as cyclo(bhcLeu-Nle-4Pal-Pipt5OH-W-dProt4OH-RbOHAsn-4Pal-Trp7CN-aMeS-Phe4CONH2-Phe4COOH-Sar-SbMeW7OMe)) [SEQ ID NO. 78]
2.8 | {CH2CO}-[Nle][4Pal][Pipc4OH]W[NMeE]N[4Pal][Trp(7-Cl)][αMeS][Phe(4-COOH)]Y[Sar][Trp(βS-Me,7-OMe)]C-NH2 (thioether N-14 (inferred)) [SEQ ID NO. 71]
1.9 | cyclo([bhcLeu][Nle][4Pal][Pipt5OH]W[dHyp]N[AlaPyrim4COOH][Trp(7-Cl)][αMeS][Phe(4-CONH2)][Phe(4-COOH)][Sar][Trp(βS-Me,7-OMe)]) (reading uncertain; also: printed as cyclo(bhcLeu-Nle-4Pal-Pipt5OH-W-dProt4OH-N-AlaPyrim4COOH-Trp7Cl-aMeS-Phe4CONH2-Phe4COOH-Sar-SbMeW7OMe)) [SEQ ID NO. 88]
1.1 | cyclo([bhcLeu][SerOEt][4Pal][Pipt5OH]W[dHyp]N[4Pal][Trp(7-Cl)][αMeS][Phe(4-CONH2)][Phe(4-COOH)][Sar][Trp(βS-Me,7-OMe)]) (reading uncertain; also: printed as cyclo(bhcLeu-SerOEt-4Pal-Pipt5OH-W-dProt4OH-N-4Pal-Trp7Cl-aMeS-Phe4CONH2-Phe4COOH-Sar-SbMeW7OMe)) [SEQ ID NO. 142]
6.1 | {CH2CO}-[Nle][4Pal][Pip2c]W[NMeE][Qdm][4Pal][Trp(7-Cl)][αMeS][Phe(4-COOH)]Y[Sar][Trp(βS-Me,7-OMe)]C-NH2 (thioether N-14 (inferred); reading uncertain; also: printed as cyclo(ClAc-Nle-4Pal-Pip2c-W-NMeE-Qdm-4Pal-Trp7Cl-aMeS-Phe4COOH-Y-Sar-SbMeW7OMe-C)-NH2) [SEQ ID NO. 75]
1.5 | cyclo([bhcLeu][Ahp′][SbMe4Pal]HW[dHyp]N[Phe(4-COOH)][Trp(7-CN)][αMeS][Phe(4-CONH2)][Phe(4-CONH2)][Sar][Trp(βS-Me,7-OMe)]) (reading uncertain; also: printed as cyclo(bhcLeu-Ahp-SbMe4Pal-H-W-dProt4OH-N-Phe4COOH-Trp7CN-aMeS-Phe4CONH2-Phe4CONH2-Sar-SbMeW7OMe)) [SEQ ID NO. 98]
4.7 | {CH2CO}-[Nle][4Pal][Pip2c]W[d(αMeP)]N[4Pal][Trp(7-Cl)][αMeS][Phe(4-COOH)]Y[Sar][Trp(βS-Me,7-OMe)]C-NH2 (thioether N-14 (inferred); reading uncertain; also: printed as cyclo(ClAc-Nle-4Pal-Pip2c-W-daMeP-N-4Pal-Trp7Cl-aMeS-Phe4COOH-Y-Sar-SbMeW7OMe-C)-NH2) [SEQ ID NO. 76]
4 | {CH2CO}-[Nle][PyrimAla][Pip2c][Trp(7-aza)][NMeE]N[4Pal][Trp(7-Cl)][αMeS][Phe(4-COOH)]Y[Sar][Trp(βS-Me,7-OMe)]C-NH2 (thioether N-14; reading uncertain; also: printed as cyclo(ClAc-Nle-PyrimAla-Pip2c-Trp7az-NMeE-N-4Pal-Trp7Cl-aMeS-Phe4COOH-Y-Sar-SbMeW7OMe-C)-NH2) [SEQ ID NO. 65]
